# Assay results as given in the RNAGym collection of RNA variant scans (doi:10.7554/elife.80360).
# B1: HDV Ribozyme (parent)
# chain: GGCCGGCAUGGUCCCAGCCUCCUCGCUGGCGCCGGCUGGGCAACAUUCCGAGGGGACCGUCCCCUCGGUAAUGGCGAAUGGGACCCA
# Variants of: B1
# Assay: self-cleavage, relative activity (ratio to wild type); higher = more cleavage; co-transcriptional
row,Variant,self-cleavage
1,C26G G74U,0.359
2,C26G C36A,0.151
3,C26G C36U,0.529
4,C26G U46A,0.731
5,C26G G67U,0.665
6,C26G C48A,0.973
7,C26U C57G,0.932
8,C26U C57A,1.22
9,U27A C41G,0.858
10,C26A G73C,0.522
11,C26A G73A,0.89
12,C26A A42U,0.525
13,C26A A56U,1.12
14,C26G G82A,0.813
15,C26G A77C,0.383
16,C26A C63G,0.853
17,C26U G35A,0.876
18,C26U G31U,0.762
19,C26U G31A,0.819
20,U27A A45C,0.256
21,U27A C85A,0.957
22,U27A C85U,0.684
23,C26U U65C,1.07
24,C26U U65G,1.02

row,Variant,self-cleavage
1,C26A C41U,1.17
2,C26A C41G,0.883
3,C26A U46C,0.745
4,C26A A70C,1.01
5,C26A A70G,1.11
6,C26G C85G,0.965
7,C26G C85A,1.06
8,C26U C33U,0.872
9,C26U C33G,0.389
10,C26A C44G,0.712
11,C26G C49A,0.95
12,C26G A70C,0.957
13,U27A A51G,0.997
14,C26U G38A,0.0573
15,C26U G38C,0.155
16,C26G C57A,0.812
17,U27A A77G,1.15
18,C26G C86A,0.847
19,U27A G39U,0.213
20,C26A U72G,0.657
21,C26U U27C,1.29
22,C26U U27G,0.923
23,C26A G53C,0.759
24,C26G G68A,0.787

row,Variant,self-cleavage
1,C26G G35C,0.131
2,C26G C33G,0.285
3,C26U C41G,1.02
4,U27A C75A,0.147
5,C26U G34A,0.36
6,C26G C84A,1.09
7,C26U G59A,1.08
8,C26U G80A,0.897
9,C26A A78G,0.831
10,C26A C48G,1.07
11,C26A C48A,0.941
12,U27A C33G,0.287
13,G25U U69G,0.244
14,C26G U65G,1.09
15,U27A G50A,0.967
16,G25U U79C,0.115
17,C26U G73C,0.492
18,U27A C44U,0.482
19,U27A C58G,0.831
20,C26U C36U,0.975
21,C26A G38U,0.208
22,U27A G40C,0.151
23,C26A G29A,0.13
24,C26A G29U,0.032

row,Variant,self-cleavage
1,C26A U60A,1.02
2,C26G G59U,0.831
3,C26U G54C,1.03
4,C26A C62G,0.63
5,C26U G76C,0.87
6,C26A G54C,1
7,C26A G54A,0.79
8,C26G A83C,0.785
9,U27A C62U,0.935
10,C26U A51U,0.901
11,C26U A51C,0.872
12,U27A A43C,0.0723
13,U27A A43U,0.401
14,U27A C84G,0.957
15,C26U A77G,0.872
16,C26U A77U,0.641
17,C26U U47G,0.877
18,C26G U69C,1.26
19,C26G U69A,0.886
20,C26G G53C,0.73
21,C26U G29U,0.136
22,U27A C48U,0.95
23,C26G G73U,0.291
24,C26G C61A,1.12

row,Variant,self-cleavage
1,C26U,1.02
2,C26G,0.952
3,C26A,1.01
4,C26A U65G,0.646
5,C26A A43G,0.731
6,C26A A43C,0.665
7,C26G C64G,0.787
8,U27A G34C,0.0978
9,C26G G40C,0.19
10,C26U U72G,0.721
11,C26U A45C,0.776
12,C26A U79G,0.875
13,C26A U69A,0.985
14,C26A G39U,0.935
15,C26U C66A,1.09
16,U27A A71U,0.906
17,C26A C75G,0
18,C26U C75G,0.287
19,C26U C75U,0.113
20,G25U U60A,0.237
21,G25U U60C,0.0475
22,U27A G31U,0.244
23,C26G G34A,0.54
24,C26A C30U,0.68

row,Variant,self-cleavage
1,C26U C30U,0.967
2,C26U C30A,0.816
3,U27A A83U,0.88
4,U27A A83G,0.723
5,U27A C49U,0.88
6,C26A C36G,0.196
7,U27A A42G,0.361
8,C26A C66A,0.909
9,C26A C66U,0.857
10,U27A C86U,0.966
11,U27A A70G,0.987
12,C26U A70G,0.831
13,C26U G28A,0.234
14,C26U C85A,0.96
15,C26G G55A,0.884
16,C26G C41G,0.739
17,C26G C41U,0.76
18,U27A C36G,0.298
19,C26U U46C,0.897
20,C26U C44G,0.831
21,C26G C75A,0.266
22,G25U U72A,0.0707
23,C26A G40A,1.01
24,C26A A71G,1.11

row,Variant,self-cleavage
1,C26A G34A,0.486
2,C26G G52U,0.671
3,C26G G52C,0.889
4,C26U C64U,0.819
5,U27A,0.916
6,C26U C84G,0.962
7,C26A G81A,0.712
8,C26U U37C,1.34
9,C26U U37G,0.346
10,C26A G28C,0.0791
11,C26A G28U,0.222
12,C26A G35C,0.429
13,C26A G35U,0.619
14,C26G G39C,0.18
15,C26G G39U,0.324
16,U27A C63A,0.95
17,C26A C49G,0.867
18,C26A A77G,0.902
19,G25U U47G,0.0692
20,C26U A42U,0.682
21,G25U U27A,0.135
22,C26U G67A,0.947
23,C26U G67C,1.12
